Results: patent US20190309079A1 (Regeneron, published 2019)

T1: LEPR-P316T (signaling-impaired mutant) on HEK293 reporter cells (human, UniProt P48357 22-1165)
T1 sequence: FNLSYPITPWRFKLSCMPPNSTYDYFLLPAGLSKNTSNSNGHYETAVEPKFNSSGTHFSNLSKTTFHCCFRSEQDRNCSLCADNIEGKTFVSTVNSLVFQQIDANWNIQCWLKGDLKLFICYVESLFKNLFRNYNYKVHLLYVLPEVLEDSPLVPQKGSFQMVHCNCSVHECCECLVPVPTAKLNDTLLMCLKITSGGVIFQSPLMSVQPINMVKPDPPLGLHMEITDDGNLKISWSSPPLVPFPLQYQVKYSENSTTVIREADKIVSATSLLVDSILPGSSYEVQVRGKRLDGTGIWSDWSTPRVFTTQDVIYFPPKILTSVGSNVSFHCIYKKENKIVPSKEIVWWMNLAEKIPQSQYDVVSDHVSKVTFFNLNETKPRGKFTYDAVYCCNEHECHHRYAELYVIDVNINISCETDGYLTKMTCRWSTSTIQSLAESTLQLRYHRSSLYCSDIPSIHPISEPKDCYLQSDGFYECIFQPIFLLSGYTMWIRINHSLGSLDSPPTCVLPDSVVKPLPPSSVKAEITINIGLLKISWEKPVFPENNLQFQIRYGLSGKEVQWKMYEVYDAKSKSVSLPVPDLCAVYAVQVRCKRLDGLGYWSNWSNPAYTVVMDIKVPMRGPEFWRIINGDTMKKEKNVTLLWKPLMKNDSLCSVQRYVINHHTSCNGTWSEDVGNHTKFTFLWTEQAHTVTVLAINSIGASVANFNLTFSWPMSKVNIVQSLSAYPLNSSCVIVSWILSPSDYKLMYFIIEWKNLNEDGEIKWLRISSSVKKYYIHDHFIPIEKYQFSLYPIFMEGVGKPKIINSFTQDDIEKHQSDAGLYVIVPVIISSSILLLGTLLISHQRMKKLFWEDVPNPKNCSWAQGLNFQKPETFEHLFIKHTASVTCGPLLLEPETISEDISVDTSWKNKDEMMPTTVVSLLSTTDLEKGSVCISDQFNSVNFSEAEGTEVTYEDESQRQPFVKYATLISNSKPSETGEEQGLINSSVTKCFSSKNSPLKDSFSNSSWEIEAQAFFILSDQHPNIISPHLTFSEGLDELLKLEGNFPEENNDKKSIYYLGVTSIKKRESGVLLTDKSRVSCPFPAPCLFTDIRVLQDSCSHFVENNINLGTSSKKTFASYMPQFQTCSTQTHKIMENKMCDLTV

T2: full length human LEPR (amino acids 1-1165 of P48357, Isoform B) on cells (human, UniProt P48357 22-1165)
T2 construct: also called HEK293/Stat3-luc/hLEPR-FL; HEK293/Stat3-hLEPR-FL
T2 sequence: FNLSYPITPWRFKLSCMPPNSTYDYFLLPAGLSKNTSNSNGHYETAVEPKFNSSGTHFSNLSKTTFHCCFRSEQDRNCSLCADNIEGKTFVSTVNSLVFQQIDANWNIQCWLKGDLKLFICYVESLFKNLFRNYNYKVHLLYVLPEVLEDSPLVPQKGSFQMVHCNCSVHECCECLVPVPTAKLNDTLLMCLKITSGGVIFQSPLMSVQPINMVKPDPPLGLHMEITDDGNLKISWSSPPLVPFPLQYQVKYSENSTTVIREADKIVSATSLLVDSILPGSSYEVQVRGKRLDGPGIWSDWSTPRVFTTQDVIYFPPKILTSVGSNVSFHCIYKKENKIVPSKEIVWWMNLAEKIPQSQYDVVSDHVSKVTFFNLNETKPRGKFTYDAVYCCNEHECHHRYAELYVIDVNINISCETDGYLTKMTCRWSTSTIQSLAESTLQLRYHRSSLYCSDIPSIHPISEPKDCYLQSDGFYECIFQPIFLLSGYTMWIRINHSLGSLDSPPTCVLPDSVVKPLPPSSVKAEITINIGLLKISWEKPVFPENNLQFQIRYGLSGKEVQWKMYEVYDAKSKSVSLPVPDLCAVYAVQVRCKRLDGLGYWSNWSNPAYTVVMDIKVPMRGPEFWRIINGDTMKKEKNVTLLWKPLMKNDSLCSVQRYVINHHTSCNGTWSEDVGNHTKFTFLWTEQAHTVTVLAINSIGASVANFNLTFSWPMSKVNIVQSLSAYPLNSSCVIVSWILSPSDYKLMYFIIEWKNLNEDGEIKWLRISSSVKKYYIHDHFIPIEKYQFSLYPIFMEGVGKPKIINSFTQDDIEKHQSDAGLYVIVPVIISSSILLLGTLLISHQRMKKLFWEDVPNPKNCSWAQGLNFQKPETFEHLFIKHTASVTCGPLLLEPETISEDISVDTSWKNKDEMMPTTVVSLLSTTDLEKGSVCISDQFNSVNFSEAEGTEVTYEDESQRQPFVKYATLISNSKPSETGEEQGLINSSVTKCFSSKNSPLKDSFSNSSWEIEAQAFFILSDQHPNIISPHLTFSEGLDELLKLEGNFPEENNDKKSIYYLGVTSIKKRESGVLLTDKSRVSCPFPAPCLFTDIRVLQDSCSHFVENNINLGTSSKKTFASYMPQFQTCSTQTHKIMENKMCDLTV


How the values were obtained:
[1] = biological target: T1, LEPR-P316T (signaling-impaired mutant) …; experiment: cell-based or functional assay
[2] = biological target: T2, full length human LEPR (amino acids …); experiment: FACS, 70 nM Ab, HEK293/Stat3-luc/hLEPR-FL, no Leptin

Row | Binder | EC50 (read off the curve), pSTAT3 Y705/STAT3 densitometry [1] [M] | Binding Ratio (normalized to unstained) [2] [fold]
1 | H4H16650P2 (antibody, V domains shown) VH: QVQLVESGGGVVQPGKSLRLSCVASGFTFSSDAMYWVRQAPGKGLEWVAVIYYDGNYQYYEDSVKGRFTISRDNSQNTLDLQMNSLRVDDTAVYFCARLNWDYWYLDLWGRGTLVTVSS VL: not shown | ~4e-10 | 42
2 | H4H17319P2 (antibody, V domains shown, also called REGN4461) VH: QVQLVESGGSVVQPGRSLRLSCAASGFTFSTYAMYWVRQTPGKGLEWVAVLYSDGSNKYYIDSVKGRFTISRDTSTNTLYLQMSSLRADDSALYYCARLNWDYWYFDLWGRGTLVTVSS VL: not shown | – | 47
3 | H4H16679P2 (antibody, V domains shown) VH: QVQLVESGGGVVQPGRSLRLSCTASGFTFSSYAMYWVRQAPGKGLEWVSVIYYDGSYKYYADSVKGRFTISRDNSKNTLYLQMDSLRAEDTAVYYCASYNWNYWYFDFWGRGTLVTVSS VL: not shown | – | 51
4 | H4H17321P2 (antibody, V domains shown) VH: QVQLVESGGGVVQPGRSLRLSCEASGFSSSDNAMYWVRQAPGKGLEWVSVIYHDGSYKYYEDSVKGRFTIARDNSKNTLYLQMNSLRAEDTAVYYCARYNWNHWYFDVWGRGTLVTVSS VL: not shown | – | 46
